Reference: patent US20110135662A1 (UCB, published 2011)
Changes are numbered by the printed parent chain. Where no end group is shown, it is not given here.

T1: A32-CTLESIMNTLESEEDFRKY (cyclic) (human, also: biotinylated in screening assay, position not given here)
T1 construct: Human Nav1.7 peptide; also called Nav1.7 peptide A32
T1 peptide: cyclo(CTLESIMNTLESEEDFRKY)

T2: B11.7 Cyclo[biotinyl-PEG-cysPMTEEFKN] (not fully specified; cyclic; biotinyl-PEG on the cysteine)
T2 construct: also called B11.7 peptide; Nav 1.7 peptide
T2 peptide: CPMTEEFKN

T3: B11.6 Cyclo[biotinyl-PEG-cysEHHPMTPQFEH] (not fully specified; cyclic; biotinyl-PEG on the cysteine)
T3 construct: also called Nav 1.6 E1 peptide
T3 peptide: CEHHPMTPQFEH

T4: B11.5 Cyclo[biotinyl-PEG-cysEHYNMTSEFEE] (not fully specified; cyclic; biotinyl-PEG on the cysteine)
T4 construct: also called Nav 1.5 E1 peptide
T4 peptide: CEHYNMTSEFEE

T5: B11.8 Cyclo[biotinyl-PEG-cysEHHGMSPTFEA] (not fully specified; cyclic; biotinyl-PEG on the cysteine)
T5 construct: also called Nav 1.8 E1 peptide
T5 peptide: CEHHGMSPTFEA

T6: B11.9 Cyclo[biotinyl-PEG-cysEHHKMEASFEK] (not fully specified; cyclic; biotinyl-PEG on the cysteine)
T6 construct: also called Nav 1.9 E1 peptide
T6 peptide: CEHHKMEASFEK

T7: B11.4 Cyclo[biotinyl-PEG-cysEHYPMTEHFDN] (not fully specified (N-terminus, bridges); printed as Cyclo[biotinyl-PEG-cysEHYPMTEHFDN]; also: biotinyl-PEG on the cysteine)
T7 construct: also called Nav 1.4 E1 peptide
T7 peptide: CEHYPMTEHFDN

T8: B11.1 Cyclo[biotinyl-PEG-cysEHYPMTDHFNN] (not fully specified (N-terminus, bridges); printed as Cyclo[biotinyl-PEG-cysEHYPMTDHFNN]; also: biotinyl-PEG on the cysteine)
T8 construct: also called Nav 1.1 E1 peptide
T8 peptide: CEHYPMTDHFNN

T9: B11.2/3 Cyclo[biotinyl-PEG-cysEHYPMTEQFSS] (not fully specified (N-terminus, bridges); printed as Cyclo[biotinyl-PEG-cysEHYPMTEQFSS]; also: biotinyl-PEG on the cysteine)
T9 construct: also called Nav 1.2 and 1.3 E1 peptide
T9 peptide: CEHYPMTEQFSS

T10: B11-CPMTEEFKN (cyclic) (human, also: biotinylated in screening assay, position not given here)
T10 construct: Human Nav1.7 peptide; also called Nav1.7 peptide B11
T10 peptide: cyclo(CPMTEEFKN)

B1: CA167_00932 (antibody, rabbit IgG1, V domains shown)
VH: QSLEESGGRLVTPGTPLTLTCTVSGFSLSRYWMSWVRQAPGKGLEWIGNIGGGSGSTLYAPWAKGRSTISKTSTTVDLKITSPTTEDTATYFCGRYVKNGGGYRLDLWGPGTLVTVS
VL: AAVLTQTPSSVSAAVGGTVTIKCQSSQSVYNNNEFSWYQQKPGQPPKLLIYDASKLASGVPSRFSGSGSGTQFTLTISGVQCDDVATYYCLGGYNDDTNRWAFGGGTEVVVE
notes: Rabbit monoclonal from rabbit 3822; also called antibody 932
B2: CA167_01080 (antibody, rabbit IgG1, V domains shown)
VH: QSLEESGGRLVTPETPLTLTCTASGIDLSKWPMTWVRQAPGKGLEWIGIIGRSGSTNYASWAKGRFTISKTSTTVDLKMTSPTTEDTATYFCARGGSYYDLWGQGTLVTVS
VL: AQVLTQTASPVSAAVGNTVTITCQSSQSVWKNNDLSWYQQKLGQPPKLLIYYASTLASGVSSRFKASGSGTQFTLTISDVQCDDAGTYYCVGSYDCSSADCNAFGGGTKVVVK
notes: Rabbit monoclonal from rabbit 3824
B3: CA167_00983 (antibody, rabbit IgG1, V domains shown)
VH: QSVEESGGRLVTPGTPLTLTCTVSGFSLSNYAMSWVRQAPGKGLEWIGIIGKSGSTAYASWAKGRFTISRTSTTVDLEITSPTTEDTATYFCVRFVLLWGPGTLVTVS
VL: B2 VL with N17G, T22N, W30Y, S36A, L42P, A66G, Q72E, V80A, G86A, V91L
notes: as for B2

Key:
[1] = molecular target: human Nav1.7 channel (type IX voltage-gated sodium channel alpha subunit) (human, UniProt Q15858 1-1988); assay: cell-based or functional assay
[2] = molecular target: T1, A32-CTLESIMNTLESEEDFRKY (cyclic); assay: peptide specificity; bead-based FMAT screen on biotinylated peptide
Procedure: (§1) SLAM was performed using substantially the methods described in Tickle et al. 2009 (JALA, Vol. 14, number 5, p303-307). Briefly, SLAM cultures were set up using rabbit splenocytes or PBMC and supernatants were first screened for their ability to bind biotinylated peptide in a bead-based assay in the FMAT. […] Positives from this screen were then put through a negative screen to identify non-specific antibodies.

[3] = molecular target: T2, B11.7 Cyclo[biotinyl-PEG-cysPMTEEFKN]; assay: peptide binding ELISA (FIG. 3K legend)
Procedure: (§2) Nunc 96 well plates were coated overnight at 4° C. in 5 ug/ml Streptavidin (Jackson 016-000-114) 100 ul/well in carbonate coating buffer. Plates were washed four times in PBS/tween and 200 ul/well of block (1% BSA in PBS) was added for 1 hour at RT. Plates were washed four times in PBS/tween and 100 ul/well of biotinylated peptide at 5 ug/ml was added for 1 hour at RT. Plates were washed four times in PBS/tween and 100 ul/well of antibody added (starting at 10 ug/ml diluting in block in half logs down the plate) for 1 hour at RT. Plates were washed four times in PBS/tween and […] goat anti rabbit Fc HRP (Jackson 111-036-046) added for 1 hour at RT. Plates were washed four times in PBS/tween and 100 ul/well TMB (3,3′,5,5′ Tetramethylbenzidine) solution added. 50 ul/well of NaF was added to stop reaction and absorbance read at 630 nm.

[4] = molecular target: T3, B11.6 Cyclo[biotinyl-PEG-cysEHHPMTPQFEH]; assay: peptide binding ELISA, biotinylated peptide on streptavidin
Procedure: as §2

[5] = molecular target: T4, B11.5 Cyclo[biotinyl-PEG-cysEHYNMTSEFEE]; assay: as above
Procedure: as §2

[6] = molecular target: T5, B11.8 Cyclo[biotinyl-PEG-cysEHHGMSPTFEA]; assay: as above
Procedure: as §2

[7] = molecular target: T6, B11.9 Cyclo[biotinyl-PEG-cysEHHKMEASFEK]; assay: as above
Procedure: as §2

[8] = molecular target: T7, B11.4 Cyclo[biotinyl-PEG-cysEHYPMTEHFDN]; assay: as above
Procedure: as §2

[9] = molecular target: T8, B11.1 Cyclo[biotinyl-PEG-cysEHYPMTDHFNN]; assay: as above
Procedure: as §2

[10] = molecular target: T9, B11.2/3 …; assay: as above
Procedure: as §2

B11-CPMTEEFKN (cyclic) = molecular target: T10, B11-CPMTEEFKN (cyclic); assay: peptide specificity; bead-based FMAT screen on biotinylated peptide
Procedure: as §1

[11] = molecular target: T2, B11.7 Cyclo[biotinyl-PEG-cysPMTEEFKN]; assay: peptide binding ELISA (FIG. 3J legend)
Procedure: as §2

Row | Binder | Nav1.7 inhibition (%) at 25 µg/ml, automated patch clamp, HEK cells [1] [%] | binding result [2] | binding result [3] | binding result [4] | binding result [5] | binding result [6] | binding result [7] | binding result [8] | binding result [9] | binding result [10] | binding result (B11-CPMTEEFKN (cyclic)) | binding result [11]
1 | B1 | 27 | binds |  |  |  |  |  |  |  |  |  | 
2 | B2 | 46 |  | binds | no binding (tested: antibody starting at 10 ug/ml) | no binding (tested: antibody starting at 10 ug/ml) | no binding (tested: antibody starting at 10 ug/ml) | no binding (tested: antibody starting at 10 ug/ml) | no binding (tested: antibody starting at 10 ug/ml) | no binding (tested: antibody starting at 10 ug/ml) | no binding (tested: antibody starting at 10 ug/ml) | binds | 
3 | B3 | 41 |  |  | no binding (tested: antibody starting at 10 ug/ml) | no binding (tested: antibody starting at 10 ug/ml) | no binding (tested: antibody starting at 10 ug/ml) | no binding (tested: antibody starting at 10 ug/ml) | no binding (tested: antibody starting at 10 ug/ml) | no binding (tested: antibody starting at 10 ug/ml) | no binding (tested: antibody starting at 10 ug/ml) | binds | binds
